Experimental data from US20210170043A1, “DC-SIGN ANTIBODY CONJUGATES COMPRISING STING AGONISTS” (NOVARTIS AG, priority 2018, published 2021).
Substitutions are numbered along the chain they refer to. In names and notes the source's numbering stands.

B1: 1G12 Hz: humanized VL and VH domains of antibody 1G12 (antibody)
heavy: QVQLQESGPGLVKPSETLSLTCTVSGFSLTNYGVHWIRQPPGKGLEWIGVIWRGESTDYNAAFMSRVTISKDDSKSQVSLKLSSVTAADTAVYYCARNGGSSGWYFDVWGQGTTVTVSSASTKGPSVFPLAPSSKSTSGGTAALGCLVKDYFPCPVTVSWNSGALTSGVHTFPAVLQSSGLYSLSSVVTVPSSSLGTQTYICNVNHKPSNTKVDKRVEPKSCDKTHTCPPCPAPELLGGPSVFLFPPKPKDTLMISRTPEVTCVVVAVSHEDPEVKFNWYVDGVEVHNAKTKPREEQYNSTYRVVSVLTVLHQDWLNGKEYKCKVSNKALAAPIEKTISKAKGQPREPQVYTLPPSREEMTKNQVSLTCLVKGFYPCDIAVEWESNGQPENNYKTTPPVLDSDGSFFLYSKLTVDKSRWQQGNVFSCSVMHEALHNHYTQKSLSLSPGK
light: DIQLTQSPSFLSASVGDRVTITCKASQDVTSAVAWYQQKPGKAPKLLIYWTSTRHTGVPSRFSGSGSGTEYTLTISSLQPEDFATYYCQQHYTTPLTFGQGTKLEIKRTVAAPSVFIFPPSDEQLKSGTASVVCLLNNFYPREAKVQWKVDNALQSGNSQESVTEQDSKDSTYSLSSTLTLSKADYEKHKVYACEVTHQGLSSPVTKSFNRGEC
B2: 2B2 Chimeric: chimeric antibody chains comprising a murine variable region and human constant region (antibody)
heavy: EVQLQQSGAELVRPGSSVKMSCKTSGYTFTNYGINWVKQRPGQGLEWIGYIYIGNDYTEYNERFKGKATLTSDTSSSTAHIQLNSLTSEDSAIYFCARLYYGSSLYSYAMDYWGQGTSVTVSSASTKGPSVFPLAPSSKSTSGGTAALGCLVKDYFPCPVTVSWNSGALTSGVHTFPAVLQSSGLYSLSSVVTVPSSSLGTQTYICNVNHKPSNTKVDKRVEPKSCDKTHTCPPCPAPELLGGPSVFLFPPKPKDTLMISRTPEVTCVVVAVSHEDPEVKFNWYVDGVEVHNAKTKPREEQYNSTYRVVSVLTVLHQDWLNGKEYKCKVSNKALAAPIEKTISKAKGQPREPQVYTLPPSREEMTKNQVSLTCLVKGFYPCDIAVEWESNGQPENNYKTTPPVLDSDGSFFLYSKLTVDKSRWQQGNVFSCSVMHEALHNHYTQKSLSLSPGK
light: DIVMTQAAPSVSVTPGESVSISCRSSKSLLHSSGNTYLYWFLQRPGQSPQLLISRMSNLASGVPDRFSGSGSGTAFTLRISRVEAEDVGVYYCMQHLEYPYTFGGGTKLELKRTVAAPSVFIFPPSDEQLKSGTASVVCLLNNFYPREAKVQWKVDNALQSGNSQESVTEQDSKDSTYSLSSTLTLSKADYEKHKVYACEVTHQGLSSPVTKSFNRGEC
B3: 952P16 N92Q: optimization of sequences by removal of post-translational modifications, non-preferred sites; substitutions made by site directed mutagenesis (antibody)
heavy: QVTLRESGPALVKPTQTLTLTCTFSGFSLSTSGVSVSWIRQPPGKALEWLALIDWDDDKYYSTSLKTRLTISKDTSKNQVVLTMTNMDPVDTATYYCARTPSGSYGRYFDLWGRGTLVTVSSASTKGPSVFPLAPSSKSTSGGTAALGCLVKDYFPCPVTVSWNSGALTSGVHTFPAVLQSSGLYSLSSVVTVPSSSLGTQTYICNVNHKPSNTKVDKRVEPKSCDKTHTCPPCPAPELLGGPSVFLFPPKPKDTLMISRTPEVTCVVVAVSHEDPEVKFNWYVDGVEVHNAKTKPREEQYNSTYRVVSVLTVLHQDWLNGKEYKCKVSNKALAAPIEKTISKAKGQPREPQVYTLPPSREEMTKNQVSLTCLVKGFYPCDIAVEWESNGQPENNYKTTPPVLDSDGSFFLYSKLTVDKSRWQQGNVFSCSVMHEALHNHYTQKSLSLSPGK
light: DIQMTQSPSTLSASVGDRVTITCRASQSISNWLAWYQQKPGKAPKLLIYKASSLESGVPSRFSGSGSGTEFTLTISSLQPDDFATYYCQQYQSYWTFGQGTKVEIKRTVAAPSVFIFPPSDEQLKSGTASVVCLLNNFYPREAKVQWKVDNALQSGNSQESVTEQDSKDSTYSLSSTLTLSKADYEKHKVYACEVTHQGLSSPVTKSFNRGEC
B4: 952G04 N92Q: optimization of sequences by removal of post-translational modifications, non-preferred sites; substitutions made by site directed mutagenesis (antibody)
heavy: B3 heavy with S37T, T70A
light: B3 light with N31T, K50E
B5: 960K03 N92S: optimization of sequences by removal of post-translational modifications, non-preferred sites; substitutions made by site directed mutagenesis (antibody)
heavy: QVTLRESGPALVKPTQTLTLTCTFSGFSLSTGGMSVSWIRQPPGKALEWLALIDWDDDKYYSTSLKTRLTISKDTSKNQLVLTMTNMDPVDTATYYCARAHSGSYFDFWGQGTLVTVSSASTKGPSVFPLAPSSKSTSGGTAALGCLVKDYFPCPVTVSWNSGALTSGVHTFPAVLQSSGLYSLSSVVTVPSSSLGTQTYICNVNHKPSNTKVDKRVEPKSCDKTHTCPPCPAPELLGGPSVFLFPPKPKDTLMISRTPEVTCVVVAVSHEDPEVKFNWYVDGVEVHNAKTKPREEQYNSTYRVVSVLTVLHQDWLNGKEYKCKVSNKALAAPIEKTISKAKGQPREPQVYTLPPSREEMTKNQVSLTCLVKGFYPCDIAVEWESNGQPENNYKTTPPVLDSDGSFFLYSKLTVDKSRWQQGNVFSCSVMHEALHNHYTQKSLSLSPGK
light: B3 light with S28R, Y91F, Q92S

Columns and labels:
human DC-SIGN [1] = target: T1, human DC-SIGN (Homo sapiens, UniProt Q9NNX6); assay: FACS binding to K562 cells expressing human DC-SIGN; details: FACS MFI
T1 construct: expressed in transfected cells
T1 sequence (Q9NNX6 1-404): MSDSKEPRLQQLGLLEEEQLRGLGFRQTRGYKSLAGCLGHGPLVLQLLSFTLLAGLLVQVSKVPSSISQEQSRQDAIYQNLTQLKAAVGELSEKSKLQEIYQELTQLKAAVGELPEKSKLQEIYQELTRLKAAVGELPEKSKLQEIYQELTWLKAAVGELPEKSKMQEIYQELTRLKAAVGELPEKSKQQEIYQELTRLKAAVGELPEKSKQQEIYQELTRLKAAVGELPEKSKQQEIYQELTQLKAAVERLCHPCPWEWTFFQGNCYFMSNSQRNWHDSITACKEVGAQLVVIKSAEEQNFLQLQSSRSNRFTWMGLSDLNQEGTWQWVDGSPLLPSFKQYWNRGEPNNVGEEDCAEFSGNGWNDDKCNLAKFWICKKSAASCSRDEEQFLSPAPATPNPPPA
Procedure: (§1) The affinity of various antibodies and ADCs to DC-SIGN and its species orthologues was determined using FACS. Purified IgGs were titrated to determine EC50 values for binding to cell surface expressed DC-SIGN.
(§2) For this purpose, human DC-SIGN expressing or cynomolgus monkey DC-SIGN expressing stable CHO cell lines or K562 expressing DC-SIGN or K562 expressing L-SIGN cell lines were checked for density and viability using VICELL (Beckman Coulter), and washed once with 4° C. PBS. Cells were stained with DAPI (0.5 ug/mL) diluted in PBS for 30 min on ice. Cells were diluted into 4° C. FACS buffer (PBS, 10 mM EDTA, 2% FBS). 125 μl of cells were seeded (10,000 cells/well) into 96-well v-bottom plates (Nunc cat#442587) and centrifuged for 4 min at 1500 rpm at 4° C. Supernatant was removed. Cells were incubated with a serial dilution of each anti-DC-SIGN antibody in FACS buffer at concentrations ranging across several logs with a top concentration no higher than 50 μg/mL for 60 minutes at 4° C. Following incubation, cells were spun down (1500 rpm, 4 min, 4° C.) and washed two times with FACS buffer. A fluorophore-conjugated anti-hFc gamma-AF-647 (Southern Biotechnology) detection antibody was added at 1:400 and samples were incubated for 1 h on ice in the dark. Following incubation, FACS buffer was added, and the cells were spun down (1500 rpm, 4 min, 4° C.) and washed two times with FACS buffer. After the final wash, cells were resuspended in Fixative Buffer (Biolegend, 420801) and 90 μl of FACS buffer followed by readout on the flow cytometry machine (BD LSRFortessa Cell Analyzer; Cat #647177). Geometric Mean fluorescence intensity (MFI) of live, single cells was calculated in Flowjo 10.4.2 and exported into Graphpad Prism7 for EC50 determination.

[2] = test system: cynomolgus monkey DC-SIGN; assay: FACS binding to CHO cells stably expressing cynomolgus monkey DC-SIGN; details: FACS MFI, average
Procedure: as §1, §2
In a similar experiment the antibodies were tested for cross-reactivity using engineered isogenic matched cell line.

human DC-SIGN [3] = target: T1, human DC-SIGN; assay: FACS binding to CHO cells stably expressing human DC-SIGN; details: FACS MFI, average
Procedure: as §1, §2

human L-SIGN = target: T2, human L-SIGN (Homo sapiens, UniProt Q9H2X3); assay: FACS binding to K562 cells expressing human L-SIGN (selectivity); details: FACS MFI
T2 construct: expressed in transfected cells; host or cells: K562, retroviral transduction
T2 sequence (Q9H2X3 1-399): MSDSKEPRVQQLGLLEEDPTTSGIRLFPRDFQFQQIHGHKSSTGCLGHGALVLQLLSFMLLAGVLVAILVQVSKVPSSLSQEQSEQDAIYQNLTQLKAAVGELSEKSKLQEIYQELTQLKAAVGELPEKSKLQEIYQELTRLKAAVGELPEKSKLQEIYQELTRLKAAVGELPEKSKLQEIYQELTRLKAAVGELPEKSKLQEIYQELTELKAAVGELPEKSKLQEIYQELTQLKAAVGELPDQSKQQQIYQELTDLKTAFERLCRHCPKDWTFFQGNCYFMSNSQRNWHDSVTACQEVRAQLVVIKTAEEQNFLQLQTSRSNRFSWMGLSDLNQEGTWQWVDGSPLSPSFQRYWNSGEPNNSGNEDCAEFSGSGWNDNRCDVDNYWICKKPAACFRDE
Procedure: as §1, §2
Selectivity was assessed by measuring apparent binding affinities to isogenic cell pairs engineered to overexpress DC-SIGN as well as cell lines expressing DC-SIGN paralog L-SIGN.

cynomolgus monkey DC-SIGN, sequence (as listed by the source): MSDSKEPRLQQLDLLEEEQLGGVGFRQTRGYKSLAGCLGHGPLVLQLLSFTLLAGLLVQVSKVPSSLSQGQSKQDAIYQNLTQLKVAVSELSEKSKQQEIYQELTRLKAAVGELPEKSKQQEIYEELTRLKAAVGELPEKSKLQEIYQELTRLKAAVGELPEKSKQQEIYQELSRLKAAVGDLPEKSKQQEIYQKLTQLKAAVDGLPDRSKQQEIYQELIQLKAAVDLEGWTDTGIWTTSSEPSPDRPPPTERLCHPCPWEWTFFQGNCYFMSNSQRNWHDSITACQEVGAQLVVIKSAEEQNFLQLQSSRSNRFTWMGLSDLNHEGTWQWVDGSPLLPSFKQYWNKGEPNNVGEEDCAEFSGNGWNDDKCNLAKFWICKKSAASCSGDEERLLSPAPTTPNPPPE

Molecule	human DC-SIGN K562 EC50 (human DC-SIGN [1])	cyno DC-SIGN CHO EC50 (ug/mL) ave. [2]	human DC-SIGN CHO EC50 (ug/mL) ave. (human DC-SIGN [3])	human L-SIGN K562 EC50 (human L-SIGN)
B1	0.021 µg/mL	0.06 µg/mL	0.07 µg/mL	>10 µg/mL
B2				>10 µg/mL
B3	0.024 µg/mL			>10 µg/mL
B4	0.017 µg/mL	0.02 µg/mL	0.07 µg/mL	>10 µg/mL
B5	0.049 µg/mL	0.08 µg/mL	0.06 µg/mL	
